Measurements: PMC3664820 (Nucleic Acids Research, 2013)

Target: the molecule itself
Assay: SEC

B1: Lac repressor (first 331 residues, dimeric, without the C-terminal tetramerization domain) (domain or fragment)
chain: MKPVTLYDVAEYAGVSYQTVSRVVNQASHVSAKTREKVEAAMAELNYIPNRVAQQLAGKQSLLIGVATSSLALHAPSQIVAAIKSRADQLGASVVVSMVERSGVEACKAAVHNLLAQRVSGLIINYPLDDQDAIAVEAACTNVPALFLDVSDQTPINSIIFSHEDGTRLGVEHLVALGHQQIALLAGPLSSVSARLRLAGWHKYLTRNQIQPIAEREGDWSAMSGFQQTMQMLNEGIVPTAMLVANDQMALGAMRAITESGLRVGADISVVGYDDTEDSSCYIPPLTTIKQDFRLLGQTSVDRLLQLSQGQAVKGNQLLPVSLVKRKTTLA
- binding result: binds
